“And” between values parts separate entries of the source, which are not always exact repeats. Identical values can stand only once. Like-named read-outs stand apart in the source and are kept apart here.

For assay [1], the target named is PKM2 (pyruvate kinase, M2 isoform), endogenous (human (endogenous in HEK293T, H1299, U87)) (UniProt P14618). Description: SEC. On the technique in general: SEC sorts molecules by how far they enter the pores of the column.
For assay [2] the target is unchanged. Nature of the assay: SEC. The source holds these as a separate data set.

Chain of PKM2 (pyruvate kinase, M2 isoform), endogenous, P14618 1-531 (natural protein; other documents disagree on this pair) (P14618 whole entry, canonical isoform): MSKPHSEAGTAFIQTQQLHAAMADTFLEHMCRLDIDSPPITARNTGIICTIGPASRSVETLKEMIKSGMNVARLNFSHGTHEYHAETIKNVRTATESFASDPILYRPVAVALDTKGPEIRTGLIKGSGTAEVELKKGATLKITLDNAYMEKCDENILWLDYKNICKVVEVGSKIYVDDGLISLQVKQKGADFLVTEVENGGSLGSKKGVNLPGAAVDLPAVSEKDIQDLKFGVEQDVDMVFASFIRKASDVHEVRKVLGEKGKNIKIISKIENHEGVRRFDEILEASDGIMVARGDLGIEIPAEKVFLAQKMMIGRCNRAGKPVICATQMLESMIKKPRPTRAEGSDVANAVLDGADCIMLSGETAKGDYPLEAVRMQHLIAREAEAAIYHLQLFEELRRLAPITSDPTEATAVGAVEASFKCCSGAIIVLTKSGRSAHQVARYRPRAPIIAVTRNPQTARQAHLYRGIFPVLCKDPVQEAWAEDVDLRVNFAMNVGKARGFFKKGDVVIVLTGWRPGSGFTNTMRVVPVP

In assay [1], “PKM2 (pyruvate kinase, M2 isoform), endogenous, P14618 1-531 (natural protein; other documents disagree on this pair)” returned a percent dimeric form of 78.9% and a percent tetrameric form of 20.1%. In addition, in assay [2], the percent dimeric form is 66.5% and 56%; the percent tetrameric form is 26.2% and 43.8%.
